First the molecules themselves.
T1: TNFR1 (Homo sapiens, UniProt P19438)
T1 chain: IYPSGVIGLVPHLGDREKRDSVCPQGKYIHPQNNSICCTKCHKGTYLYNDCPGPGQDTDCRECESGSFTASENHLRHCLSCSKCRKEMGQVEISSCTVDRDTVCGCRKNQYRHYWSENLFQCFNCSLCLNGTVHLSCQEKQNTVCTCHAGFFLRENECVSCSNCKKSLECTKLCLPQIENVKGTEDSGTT

B1: K11I (designed binder)
chain: SMEEEVEKAAIEYEKKKKEAIEKHLEKLKAKDKEAAERFLKELEEAAKEYAKDEAKTMSEEEAKRRAKKYKEKVLLSELSEEEQKEIKEAEEKLVRTILKYVEEAAK
B2: K68I (designed binder)
chain: B1 chain with I11K, K68I
B3: E86T (designed binder)
chain: B1 chain with I11K, E86T
B4: K33E (designed binder)
chain: B1 chain with I11K, K33E
B5: A51G (designed binder)
chain: B1 chain with I11K, A51G
B6: V102P (designed binder)
chain: B1 chain with I11K, V102P
B7: D53M (designed binder)
chain: B1 chain with I11K, D53M
B8: I87Q (designed binder)
chain: B1 chain with I11K, I87Q
B9: E60A (designed binder)
chain: B1 chain with I11K, E60A
B10: E83Y (designed binder)
chain: B1 chain with I11K, E83Y
B11: A67G (designed binder)
chain: B1 chain with I11K, A67G
B12: E81P (designed binder)
chain: B1 chain with I11K, E81P
B13: A36W (designed binder)
chain: B1 chain with I11K, A36W
B14: Y101R (designed binder)
chain: B1 chain with I11K, Y101R
B15: E3Q (designed binder)
chain: B1 chain with E3Q, I11K
B16: E22G (designed binder)
chain: B1 chain with I11K, E22G
B17: E62Y (designed binder)
chain: B1 chain with I11K, E62Y
B18: E26A (designed binder)
chain: B1 chain with I11K, E26A
B19: S59K (designed binder)
chain: B1 chain with I11K, S59K
B20: A55N (designed binder)
chain: B1 chain with I11K, A55N
B21: K17A (designed binder)
chain: B1 chain with I11K, K17A
B22: K29C (designed binder)
chain: B1 chain with I11K, K29C
B23: A46S (designed binder)
chain: B1 chain with I11K, A46S
B24: F39Q (designed binder)
chain: B1 chain with I11K, F39Q
B25: L43W (designed binder)
chain: B1 chain with I11K, L43W
B26: E86V (designed binder)
chain: B1 chain with I11K, E86V
B27: L79N (designed binder)
chain: B1 chain with I11K, L79N
B28: L75M (designed binder)
chain: B1 chain with I11K, L75M
B29: S1D (designed binder)
chain: B1 chain with S1D, I11K
B30: E14V (designed binder)
chain: B1 chain with I11K, E14V
B31: S1M (designed binder)
chain: B1 chain with S1M, I11K
B32: E89W (designed binder)
chain: B1 chain with I11K, E89W
B33: A47P (designed binder)
chain: B1 chain with I11K, A47P
B34: K18I (designed binder)
chain: B1 chain with I11K, K18I
B35: Y50N (designed binder)
chain: B1 chain with I11K, Y50N
B36: L43I (designed binder)
chain: B1 chain with I11K, L43I
B37: E82A (designed binder)
chain: B1 chain with I11K, E82A
B38: F39I (designed binder)
chain: B1 chain with I11K, F39I
B39: A20F (designed binder)
chain: B1 chain with I11K, A20F
B40: A63L (designed binder)
chain: B1 chain with I11K, A63L
B41: D53L (designed binder)
chain: B1 chain with I11K, D53L
B42: K71A (designed binder)
chain: B1 chain with I11K, K71A
B43: V102H (designed binder)
chain: B1 chain with I11K, V102H
B44: A36I (designed binder)
chain: B1 chain with I11K, A36I
B45: E12Q (designed binder)
chain: B1 chain with I11K, E12Q
B46: H24T (designed binder)
chain: B1 chain with I11K, H24T
B47: K15R (designed binder)
chain: B1 chain with I11K, K15R
B48: K100L (designed binder)
chain: B1 chain with I11K, K100L
B49: A67K (designed binder)
chain: B1 chain with I11K, A67K
B50: E62L (designed binder)
chain: B1 chain with I11K, E62L
B51: L79R (designed binder)
chain: B1 chain with I11K, L79R
B52: E12T (designed binder)
chain: B1 chain with I11K, E12T
B53: K11M (designed binder)
chain: B1 chain with I11M
B54: F39S (designed binder)
chain: B1 chain with I11K, F39S
B55: M58A (designed binder)
chain: B1 chain with I11K, M58A

Where a chain is given by its changes, count along the chain named. Names and notes keep the numbering of the source.

The assay has as its target T1, TNFR1. Description: yeast display SC50.
Regarding B1, the “apparent Kd (screen)” value stood at 0.539 nM.

On to B2, for which the “apparent Kd (screen)” value came out at 0.869 nM.

As for B3, the “apparent Kd (screen)” value stood at 0.956 nM.

Regarding B4, the “apparent Kd (screen)” value is 0.539 nM.

Regarding B5, the “apparent Kd (screen)” value is 2.05 nM.

With B6, the “apparent Kd (screen)” value came out at 0.49 nM.

With B7, the “apparent Kd (screen)” value was 4.83 nM.

As for B8, the “apparent Kd (screen)” value came out at 3 nM.

Turning to B9, the “apparent Kd (screen)” value was determined as 0.956 nM.

Regarding B10, the “apparent Kd (screen)” value was 2.05 nM.

B11: the “apparent Kd (screen)” value came to 0.49 nM.

Take B12: the “apparent Kd (screen)” value is 0.49 nM.

Take B13: the “apparent Kd (screen)” value was found to be 0.446 nM.

Regarding B14, the “apparent Kd (screen)” value turned out to be 0.446 nM.

In the case of B15, the “apparent Kd (screen)” value worked out at 2.25 nM.

B16: the “apparent Kd (screen)” value was 1.05 nM.

As to B17, the “apparent Kd (screen)” value is 0.869 nM.

As to B18, the “apparent Kd (screen)” value came out at 1.05 nM.

On to B19, for which the “apparent Kd (screen)” value came out at 1.05 nM.

B20: the “apparent Kd (screen)” value was determined as 11.4 nM.

B21: the “apparent Kd (screen)” value came to 1.86 nM.

With B22, the “apparent Kd (screen)” value is 1.4 nM.

On to B23, for which the “apparent Kd (screen)” value turned out to be 0.49 nM.

For B24, the “apparent Kd (screen)” value worked out at 5.84 nM.

As for B25, the “apparent Kd (screen)” value is 2.73 nM.

As for B26, the “apparent Kd (screen)” value was 1.05 nM.

For the molecule B27, the “apparent Kd (screen)” value worked out at 12.5 nM.

B28: the “apparent Kd (screen)” value was 0.49 nM.

Turning to B29, the “apparent Kd (screen)” value turned out to be 0.446 nM.

With B30, the “apparent Kd (screen)” value is 11.4 nM.

As for B31, the “apparent Kd (screen)” value turned out to be 2.25 nM.

Regarding B32, the “apparent Kd (screen)” value stood at 1.69 nM.

Consider B33, for which the “apparent Kd (screen)” value stood at 10.4 nM.

Take B34: the “apparent Kd (screen)” value was determined as 0.653 nM.

Turning to B35, the “apparent Kd (screen)” value worked out at 1.54 nM.

Regarding B36, the “apparent Kd (screen)” value is 1.4 nM.

For B37, the “apparent Kd (screen)” value came to 0.593 nM.

Take B38: the “apparent Kd (screen)” value is 3.99 nM.

Turning to B39, the “apparent Kd (screen)” value amounted to 0.446 nM.

Take B40: the “apparent Kd (screen)” value stood at 9.41 nM.

As for B41, the “apparent Kd (screen)” value came to 13.8 nM.

On to B42, for which the “apparent Kd (screen)” value stood at 0.446 nM.

For B43, the “apparent Kd (screen)” value stood at 0.49 nM.

B44: the “apparent Kd (screen)” value came out at 1.54 nM.

As for B45, the “apparent Kd (screen)” value came to 0.956 nM.

As to B46, the “apparent Kd (screen)” value was found to be 1.16 nM.

With B47, the “apparent Kd (screen)” value is 0.593 nM.

For B48, the “apparent Kd (screen)” value was 1.69 nM.

As to B49, the “apparent Kd (screen)” value is 1.54 nM.

Turning to B50, the “apparent Kd (screen)” value was found to be 0.653 nM.

In the case of B51, the “apparent Kd (screen)” value worked out at 13.8 nM.

Turning to B52, the “apparent Kd (screen)” value was 1.05 nM.

B53: the “apparent Kd (screen)” value amounted to 0.446 nM.

Consider B54, for which the “apparent Kd (screen)” value was determined as 7.07 nM.

For B55, the “apparent Kd (screen)” value was 10.4 nM.

Source of the values: PMC12416549 (2024).
